Here are results for 1 substance from publication doi:10.1101/2024.09.16.613340.

This assay deals with KSS-1::Strep (C. tropicalis). In words: SEC-MALS.

With SKR-1 (untagged) (natural protein), the stoichiometry N turned out to be 1.
